According to US20190142971A1, “FORMULATION AND DELIVERY OF MODIFIED NUCLEOSIDE, NUCLEOTIDE, AND NUCLEIC ACID COMPOSITIONS” (ModernaTX, Inc., priority 2013, published 2019):
Read-outs that look alike come from different tables or passages of the source.

Tests used:
[1] = tested on: Balb-C mice; assay: Example 79: fibrin sealant (Tisseel) with luciferase mRNA SC in mice, total flux (Tables 119, 120); assay type: in vivo; conditions: subcutaneous
Description: The thrombin and fibrinogen components were loaded separately into a dual barreled syringe. […] The injection of fibrinogen and thrombin was done simultaneously using the dual-barreled syringe. The subcutaneous injection of luciferase was done 15 minutes after the fibrinogen/thrombin injection to allow the fibrin hydrogel to polymerize (Tisseel+Luciferase group). A control group of untreated mice were also evaluated. The mice were imaged at 5 hours and 24 hours. Twenty minutes prior to imaging, mice were injected intraperitoneally with a D-luciferin solution at 150 mg/kg. Animals were then anesthetized and images were acquired with an IVIS Lumina II imaging system (Perkin Elmer). Bioluminescence was measured as total flux (photons/second) of the entire mouse.

[2] = tested on: mice; assay: Example 39: Factor IX mmRNA IM in mice, serum Factor IX at 13 hours; assay type: in vivo; conditions: 2×100 ug/mouse IM
Description: Human Factor IX mmRNA (Gen1; fully modified 5-methycytosine and pseudouridine) formulated in formulation buffer was delivered to mice via intramuscular injection.
The mice were bled at 13 hours after the intramuscular injection to determine the concentration of human the polypeptide in serum in pg/mL.

[3] = tested on: peripheral blood mononuclear cells (PBMC); assay: Example 56: percent modification, PBMC G-CSF ELISA (Table 85); assay type: cell-based, human; conditions: 22 hours after transfection
Description: 480 ng of G-CSF mRNA modified with 5-methylcytosine (5mC) and pseudouridine (pseudoU) or unmodified G-CSF mRNA was transfected with 0.4 uL of Lipofectamine 2000 into peripheral blood mononuclear cells (PBMC) from three normal blood donors (D1, D2, and D3). […] The supernatant was harvested and run by ELISA 22 hours after transfection to determine the protein expression. The expression of IFN-alpha and TNF-alpha may be a secondary effect from the transfection of the G-CSF mRNA.

[4] = tested on: human PBMC; assay: Example 45: PBMC transfection, IFN-alpha ELISA (Table 72); assay type: cell-based
Description: The plates were then incubated at 37 C.
Each condition was done in duplicate.
Shown in Tables 71 and 72 are the average from 2 separate PBMC donors of the G-CSF and IFN-alpha production over time as measured by specific ELISA.

[5] = tested on: mice; assay: Example 41: IV lipoplexed G-CSF mRNA in mice, neutrophil count (Table 66); assay type: in vivo; conditions: IV 10% lipoplex, 50 ug at days 0, 2, 4; day 5
Description: Neutrophils were measured at days 1, 5 and 8. Controls included non-specific mammalian RNA or the formulation buffer alone (F.Buffer). The mice were bled at days 1, 5 and 8 to determine the effect of mRNA-encoded human G-CSF to increase neutrophil count. The dosing regimen is shown in Table 66 as are the resulting neutrophil counts (thousands/uL; K/uL).

[6] = tested on: peripheral blood mononuclear cells (PBMC); assay type: cell-based, human; conditions: three human PBMC donors
Description: 500 ng of G-CSF mRNA modified with 5-methylcytosine (5mC) and pseudouridine (pseudoU) or unmodified G-CSF mRNA was transfected with 0.4 uL of Lipofectamine 2000 into peripheral blood mononuclear cells (PBMC) from three normal blood donors (D1, D2, and D3). […] The supernatant was harvested 6 hours and 18 hours after transfection and run by ELISA to determine the protein expression. The expression of G-CSF, IFN-alpha, and TNF-alpha for Donor 1 is shown in Table 88, Donor 2 is shown in Table 89 and Donor 3 is shown in Table 90.

[7] = tested on: C57/BL6 mice; assay: Example 32B: human G-CSF lipoplex IM, SC, IV in mice, serum G-CSF ELISA at 6 hours (Table 56); assay type: in vivo; conditions: serum 6 hours after administration
Description: 6 hours after administration of a formulation, serum was collected from each mouse to measure the amount of human G-CSF protein in the mouse serum by human G-CSF ELISA and the results are shown in Table 56.

[8] = tested on: mice; conditions: for Serum Concentration 8-12 hours after administration: G-CSF; for G-CSF Protein Expression, Conc: LNP IV, mice, 8 hrs
[9] = tested on: BALB/C mice; assay: Example 59: G-CSF mRNA IM in mice, serum human G-CSF and mouse IFN-alpha ELISA (Table 93); assay type: in vivo
[10] = tested on: C57BL/6; assay: Example 115 (second): human EPO mRNA in mannitol multi-dose, serum EPO (Table 187); assay type: in vivo, mice; conditions: IM 2.5 mg/kg per dose
Description: Serum was collected from the mice 24 hours post the second, fourth, sixth and eighth doses.

[11] = tested on: C57BL/6; assay: Example 116: mouse EPO mRNA in mannitol multi-dose, serum EPO (Table 186); assay type: in vivo, mice; conditions: mouse EPO mRNA in 5% isotonic Mannitol, IM 2.5 mg/kg per dose
Description: Serum was collected from the mice at 24 hours post the second, fourth, sixth and eighth doses.

[12] = tested on: C57BL/6; assay: Example 115: human EPO mRNA electroporation multi-dose, serum EPO (Table 185); assay type: in vivo, mice; conditions: human EPO mRNA in PBS, IM 0.2 mg/kg per dose with EP
Description: Serum was collected from the mice at 24 hours post the first, second, third and fourth doses.

[13] = I.M., 200 ug/mouse (R848 75 ug/mouse), 50 ul, 8 hours after dosing
[14] = serum 24 hours post eighth dose
[15] = serum 24 hours post fourth dose
[16] = serum 24 hours post second dose

Luciferase: luciferase mRNA, SEQ ID NO: 14, Cap1, fully modified with 5-methylcytosine and pseudouridine
Total Flux ([1]; 5 Hours): 9.94E+05 p/s
Total Flux ([1]; 24 Hours): 7.44E+05 p/s
Factor IX in serum [2]: less than 100 pg/mL
G-CSF Expression ([3]; PBMC donor D1, 480 ng mRNA): 90.2 pg/mL
G-CSF Expression ([3]; PBMC donor D2, 480 ng mRNA): 0.0 pg/mL
G-CSF Expression ([3]; PBMC donor D3, 480 ng mRNA): 22.1 pg/mL

B1: G-CSF: modified mRNA encoding human G-CSF, SEQ ID NO: 4, Cap1, fully modified with 5-methylcytosine and pseudouridine; LNP-formulated in Examples 16-22 (nucleic acid)
chain: GGGAAAUAAGAGAGAAAAGAAGAGUAAGAAGAAAUAUAAGAGCCACCAUGGCCGGUCCCGCGACCCAAAGCCCCAUGAAACUUAUGGCCCUGCAGUUGCUGCUUUGGCACUCGGCCCUCUGGACAGUCCAAGAAGCGACUCCUCUCGGACCUGCCUCAUCGUUGCCGCAGUCAUUCCUUUUGAAGUGUCUGGAGCAGGUGCGAAAGAUUCAGGGCGAUGGAGCCGCACUCCAAGAGAAGCUCUGCGCGACAUACAAACUUUGCCAUCCCGAGGAGCUCGUACUGCUCGGGCACAGCUUGGGGAUUCCCUGGGCUCCUCUCUCGUCCUGUCCGUCGCAGGCUUUGCAGUUGGCAGGGUGCCUUUCCCAGCUCCACUCCGGUUUGUUCUUGUAUCAGGGACUGCUGCAAGCCCUUGAGGGAAUCUCGCCAGAAUUGGGCCCGACGCUGGACACGUUGCAGCUCGACGUGGCGGAUUUCGCAACAACCAUCUGGCAGCAGAUGGAGGAACUGGGGAUGGCACCCGCGCUGCAGCCCACGCAGGGGGCAAUGCCGGCCUUUGCGUCCGCGUUUCAGCGCAGGGCGGGUGGAGUCCUCGUAGCGAGCCACCUUCAAUCAUUUUUGGAAGUCUCGUACCGGGUGCUGAGACAUCUUGCGCAGCCGUGAAGCGCUGCCUUCUGCGGGGCUUGCCUUCUGGCCAUGCCCUUCUUCUCUCCCUUGCACCUGUACCUCUUGGUCUUUGAAUAAAGCCUGAGUAGGAAG
modifications: Cap1, 5-methylcytosine, pseudouridine
IFN-alpha / cytokine production [4]: induced IFN-alpha, TNF-alpha and IP10
increase in neutrophil count above control [5]: four to five fold increase
protein translation and cytokine production [6]: most protein translation (G-CSF) and the least amount of cytokine
Human G-CSF in Serum ([7]; I.M., 100 μg): 85.6 pg/mL
Human G-CSF in Serum ([7]; I.V., 100 μg (Luc-unsp 150 μg)): 31.0 pg/mL
Human G-CSF in Serum ([7]; S.C., 100 μg): 3.9 pg/mL
Serum Concentration 8-12 hours after administration ([8]; IM, 100 ug): ~20 to 80 pg/mL
Serum Concentration 8-12 hours after administration ([8]; IV (LNP), 1 ug): ~20,000 pg/ml
Serum Concentration 8-12 hours after administration ([8]; IV (LNP), 10 ug): ~1,000,000 pg/ml
Serum Concentration 8-12 hours after administration ([8]; IV (LNP), 100 ug): ~5,000,000 pg/ml
Serum Concentration 8-12 hours after administration ([8]; IV (Lipoplex), 100 ug): ~30 pg/mL
Serum Concentration 8-12 hours after administration ([8]; SC, 100 ug): ~10 to 40 pg/mL
G-CSF Protein Expression, Conc ([8]; dose 10 ug): 1204.82 ng/mL
G-CSF Protein Expression, Conc ([8]; dose 100 ug): 4722.20 ng/mL
G-CSF protein (human, serum) [9, 13]: 356.5 pg/mL
IFN-alpha expression (mouse, serum) [9, 13]: 8.87 pg/mL
PC Ratio (Protein: Cytokine Ratio) ([9]; I.M., 200 ug/mouse (R848 75 ug/mouse), 8 hours after dosing): 40
mouse IFN-alpha in the serum (cytokine response) ([9]; IM, 8 hours): low but detectable cytokine response

B2: EPO: modified mRNA encoding human erythropoietin, SEQ ID NO: 7, Cap1, fully modified with 5-methylcytosine and pseudouridine; LNP NPA-060-1 in Examples 17-22 (nucleic acid)
chain: GGGAAAUAAGAGAGAAAAGAAGAGUAAGAAGAAAUAUAAGAGCCACCAUGGGAGUGCACGAGUGUCCCGCGUGGUUGUGGUUGCUGCUGUCGCUCUUGAGCCUCCCACUGGGACUGCCUGUGCUGGGGGCACCACCCAGAUUGAUCUGCGACUCACGGGUACUUGAGAGGUACCUUCUUGAAGCCAAAGAAGCCGAAAACAUCACAACCGGAUGCGCCGAGCACUGCUCCCUCAAUGAGAACAUUACUGUACCGGAUACAAAGGUCAAUUUCUAUGCAUGGAAGAGAAUGGAAGUAGGACAGCAGGCCGUCGAAGUGUGGCAGGGGCUCGCGCUUUUGUCGGAGGCGGUGUUGCGGGGUCAGGCCCUCCUCGUCAACUCAUCACAGCCGUGGGAGCCCCUCCAACUUCAUGUCGAUAAAGCGGUGUCGGGGCUCCGCAGCUUGACGACGUUGCUUCGGGCUCUGGGCGCACAAAAGGAGGCUAUUUCGCCGCCUGACGCGGCCUCCGCGGCACCCCUCCGAACGAUCACCGCGGACACGUUUAGGAAGCUUUUUAGAGUGUACAGCAAUUUCCUCCGCGGAAAGCUGAAAUUGUAUACUGGUGAAGCGUGUAGGACAGGGGAUCGCUGAUAAGCUGCCUUCUGCGGGGCUUGCCUUCUGGCCAUGCCCUUCUUCUCUCCCUUGCACCUGUACCUCUUGGUCUUUGAAUAAAGCCUGAGUAGGAAG
modifications: Cap1, 5-methylcytosine, pseudouridine
Eighth Dose EPO [10, 14]: 7.9 pg/mL
Fourth Dose EPO [10, 15]: 44.3 pg/mL
Second Dose EPO [10, 16]: 43.5 pg/mL
Sixth Dose EPO ([10]; serum 24 hours post sixth dose): 46.3 pg/mL
Eighth Dose EPO [11, 14]: 239.3 pg/mL
Fourth Dose EPO [11, 15]: 483.4 pg/mL
Second Dose EPO [11, 16]: 334.7 pg/mL
Sixth Dose EPO ([11]; serum 24 hours post sixth dose): 328.9 pg/mL
First Dose EPO ([12]; serum 24 hours post first dose): 9.5 pg/mL
Fourth Dose EPO [12, 15]: 139.9 pg/mL
Second Dose EPO [12, 16]: 27.9 pg/mL
Third Dose EPO ([12]; serum 24 hours post third dose): 284.5 pg/mL
